According to US12747297 (dated 2026):
Positions count from the first letter of the chain named.

B1: 4R.N8 (antibody, V domains shown)
VH: EVQLLESGGGLVQPGGSLRLSCAASGFTFSRHAMAWVRQAPGKGLEWVSAITMSGRSIYYADSVKGRFTISRDNSKNTLYLQMNSLRAEDTAVYYCARVHRAFDYWGQGTLVTVSS
VL: QSVLTQPPSASGTPGQRVTISCSGSPLFPDSGSFNWYQQLPGTAPKLLIYADSHRPSGVPDRFSGSKSGTSASLAISGLRSEDEADYYCGTWDYSLSRYVLGGGTKLTVLG
B2: 4R.N2 (antibody, V domains shown)
VH: B1 VH with M53A, A61G
VL: B1 VL with R98A
B3: 5R65.39 (antibody, V domains shown)
VH: QVQLVQSGAEVKKPGSSVKVSCKASGYTFTSYWINWVRQAPGQGLEWIGHIYPNKNENYYNHKFKDKATLTVDKSTNTAYMELSSLRSEDTAVYYCTREFYGRSRYSAMDYWGQGTTLTVSS
VL: DIQMTQSPSTLSASVGDRVTITCKASQNVGTAVAWYQQKPGKAPKLLIYWASTRHTGVPDRFSGSGSGTDFTLTISSLQPDDFATYYCQQFGRYPYTFGSGTKVEVK
B4: 5R65.7 (antibody, V domains shown)
VH: B3 VH with S104Q, R105Y, S107Q
VL: B3 VL
B5: 5R65 (antibody, V domains shown)
VH: B3 VH with E99D, F100Y, R105Y, S107Y
VL: B3 VL
B6: 5R65.18 (antibody, V domains shown)
VH: B3 VH with F100Y, S104T, R105Y
VL: B3 VL
B7: 5R65.10 (antibody, V domains shown)
VH: B3 VH with F100Y, R105Y, S107A
VL: B3 VL
B8: 5R65.14 (antibody, V domains shown)
VH: B3 VH with F100H, S104P, R105Y, S107N
VL: B3 VL

Target: sIL-4Rα (human)
Sequence (chain, as listed by the source): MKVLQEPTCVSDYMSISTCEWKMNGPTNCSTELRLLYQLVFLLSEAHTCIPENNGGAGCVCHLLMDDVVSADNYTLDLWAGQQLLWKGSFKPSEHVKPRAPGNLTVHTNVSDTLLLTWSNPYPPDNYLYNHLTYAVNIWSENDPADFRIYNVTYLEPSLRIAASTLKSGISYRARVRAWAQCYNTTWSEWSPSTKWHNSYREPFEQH
Assay: BLI

Kd [pM]	Binder
80.2	B1
108	B2

Target: sIL-4Rα (human)
Assay: not given

binding result	Binder
no binding	B3
no binding	B4
no binding	B5
no binding	B6
no binding	B7
no binding	B8
